B1: Pistol ribozyme (parent)
chain: GGGUCGUUGUUCCAUAAUCGCGUGGAUAUGGCACGCAAGUUUCUACCGGGCACCGUAAAUGUCCGACUGGAGCCGUUCGGGCGGCUAUAAACAGACCUCAGGCCCGAAGCGUGGCGGCACCUGCCGCCGGUGGUAAAAAAGAUCGGAAGAGCACACGUCU

Variants of: B1
Experiment: aptazyme ON/OFF ratio, guanine; higher = stronger switching; co-transcriptional cleavage with and without guanine

Row | Variant | aptazyme ON/OFF ratio
1 | U7C U8G G9C U10A U11C C12A C13A | 1.19
2 | U8C G9A U10A U11A | 1.47
3 | U7G G9C U11A C12G C13G | 1.23
4 | U8A G9C U11C C12G C13A | 1.07
5 | U7A C12A | 1.54
6 | U7A G9A U10C U11C C12U C13A | 1.03
7 | U7G U8G G9U U10C C12A C13G | 1.29
8 | U8G G9A U11A C12U C13U | 1.27
9 | U7G U8G U11G C12U | 1.25
10 | U7G U8G G9C U10C U11A C12A C13U | 1.12
11 | U7A U8G G9C U10G U11G C12U C13U | 1.48
12 | U8C | 3.02
13 | U8C G9U U10A U11A | 2.18
14 | U8A G9A U10G C13A | 1.29
15 | U7A U8G G9C U10G C12G | 1.15
16 | U7G G9A U10C | 3.35
17 | U7C U8C G9A U10G C12U C13A | 1.15
18 | U7A U8A G9A U10G U11G C12G | 1.52
19 | U7A U8G U10C U11C C12A C13A | 1.61
20 | U7G G9U | 2.19
21 | U7A U8A G9C U10A C13U | 1.18

Row | Variant | aptazyme ON/OFF ratio
22 | U7G U8A G9C U10C U11A C13G | 1.06
23 | U7G G9A C12A C13A | 1.09
24 | U7G U8A U10A U11G C12A C13U | 1.17
25 | U7C U8A G9C U10C C12U C13U | 1.05
26 | U8C G9A U11A C12G C13G | 1.2
27 | U8A G9A U10C C13U | 1.11
28 | U7C U8C G9A C12A | 1.51
29 | U7A U8G G9C U11C C12U | 1.49
30 | U7C U8C G9A U11A C13G | 1.13
31 | U7C U8A G9U U10A U11C C12G C13U | 1.25
32 | U7A U8A G9A C12A C13G | 1.06
33 | U7A U10A U11C C12U C13G | 1.07
34 | U7C U8C G9U U10C U11A C12G C13G | 1.15
35 | U8G U10C U11C C12G C13A | 1.1
36 | U7A U8C U10A U11G C12U C13G | 1.16
37 | U7C U8A G9U U10G U11G C12U C13G | 1.15
38 | U7A U8G G9A U10G C13G | 1.09
39 | U7A U8G G9A U10C U11G C12G C13U | 1.1
40 | U7A U8C G9U U10A U11A | 1.37
41 | U7G U8G G9A U11A | 2.46
42 | U7A U8A G9C U11C C12G C13U | 1.07

Row | Variant | aptazyme ON/OFF ratio
43 | U7G U8G U11A C13A | 1.5
44 | U7A U8C G9U U10G U11C C12A C13U | 1.26
45 | U7C U8G G9U U10A U11C C13A | 1.05
46 | U8C G9A U10A U11G C12G C13G | 1.17
47 | U7G U8G U10A U11A C12A C13U | 1.21
48 | U7A U8A U10A U11G C12U | 1.17
49 | U7G U8C G9U U10G C12G | 1.5
50 | U7C U8G G9A C12G C13G | 1.12
51 | G9U U10A U11C C12U C13A | 1.11
52 | U8G G9C U11G C12G C13U | 1.11
53 | U7A G9U U11C C12U C13G | 1.1
54 | U7G U8A G9C U10C U11C C12U C13A | 1.02
55 | U7C U8G G9C U10A C13G | 1.08
56 | U8A U10G U11C C13A | 1.06
57 | U7C U8A U10C U11G C12U | 1.17
58 | U7C U8C G9A U10A U11G C12A C13A | 1.09
59 | U7C G9U U11C C12G C13A | 1.05
60 | G9C U11C C12G | 1.22
61 | U8A G9A U10A C12U | 1.24
62 | U8C G9C U10G C12A C13U | 1.09
63 | U7G U8A G9C C12G C13U | 1.06

Row | Variant | aptazyme ON/OFF ratio
64 | U7C U8G U11C C12G C13U | 1.17
65 | U7C U8A C13A | 1.31
66 | U7A U8C G9C U10G U11C C12G C13U | 1.12
67 | U7A G9C U11A | 1.11
68 | U7G U8G G9A U10A U11A C13A | 1.16
69 | G9A C12G C13G | 1.46
70 | U7A U8A U10G U11C C12G C13G | 1.11
71 | U7A U8C G9C U10G U11G C12U C13G | 1.1
72 | U7C U8A U10C U11C C12A | 1.17
73 | U7G U8G G9A U10A C12A C13U | 1.06
74 | U7G U8C U11G C12A C13G | 1.15
75 | U7G G9U C12A C13U | 1.14
76 | U7G G9C U10C U11C C12A | 1.03
77 | U7C U8G G9A U11A C13U | 1.19
78 | U8C U10C U11G C13G | 1.14
79 | U7C U8C G9A U10A U11G C12G C13U | 1.14
80 | U7C U8A G9A U10C C12A C13U | 1.24
81 | U7A U8C G9C U11A C13G | 1.07
82 | U7G U8G G9U U10C U11C C12G C13A | 1.19
83 | U7C U10A C12G C13A | 1.18
